# Laboratory results as given in US12365732 (23ANDME, dated 2025).
# T1: hu-CD96 isoform 2 on CHO cells (human, UniProt P40200 22-585)
# T1 construct: also called CHO-CD96 (isoform 2); CD96-CHOs
# T1 sequence: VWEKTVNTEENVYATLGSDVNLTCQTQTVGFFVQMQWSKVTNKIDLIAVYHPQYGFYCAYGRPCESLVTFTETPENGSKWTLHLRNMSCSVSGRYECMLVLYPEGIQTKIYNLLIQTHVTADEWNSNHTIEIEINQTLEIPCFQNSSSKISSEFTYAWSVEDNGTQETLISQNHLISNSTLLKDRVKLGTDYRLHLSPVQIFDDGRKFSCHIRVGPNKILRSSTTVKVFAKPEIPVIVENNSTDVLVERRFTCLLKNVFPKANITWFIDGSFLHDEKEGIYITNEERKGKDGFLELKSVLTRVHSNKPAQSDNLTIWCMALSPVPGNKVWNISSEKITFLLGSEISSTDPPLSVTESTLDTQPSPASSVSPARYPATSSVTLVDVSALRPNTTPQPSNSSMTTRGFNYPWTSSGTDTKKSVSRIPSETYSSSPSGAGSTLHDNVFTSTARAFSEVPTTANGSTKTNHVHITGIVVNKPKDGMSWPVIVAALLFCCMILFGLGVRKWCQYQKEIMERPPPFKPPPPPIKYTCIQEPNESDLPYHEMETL
# T2: hu-CD96 (soluble, isoform 2 extracellular domain) (human, UniProt P40200 22-516, biotinylated in Octet and blocking ELISA)
# T2 construct: the assays name only hu-CD96; also called hCD96; biotinylated hu-CD96
# T2 sequence: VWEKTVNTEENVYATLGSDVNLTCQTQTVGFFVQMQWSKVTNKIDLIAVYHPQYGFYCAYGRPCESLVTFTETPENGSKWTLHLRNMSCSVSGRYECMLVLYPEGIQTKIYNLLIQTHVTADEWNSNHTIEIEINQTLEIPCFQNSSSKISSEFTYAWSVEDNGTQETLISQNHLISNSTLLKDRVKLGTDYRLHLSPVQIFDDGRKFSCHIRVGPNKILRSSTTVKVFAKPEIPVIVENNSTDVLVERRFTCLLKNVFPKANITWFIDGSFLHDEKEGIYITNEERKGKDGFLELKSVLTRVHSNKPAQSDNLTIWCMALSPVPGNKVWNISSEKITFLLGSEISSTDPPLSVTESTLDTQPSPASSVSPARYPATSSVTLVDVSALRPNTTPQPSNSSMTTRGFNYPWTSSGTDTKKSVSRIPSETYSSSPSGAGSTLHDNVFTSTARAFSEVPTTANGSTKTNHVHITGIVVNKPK
# Tests used:
# [1] = target: T1, hu-CD96 isoform 2 on CHO cells; assay: FACS, Ab 0.016 nM
# Procedure: Isoform 1 of hu-CD96 (Origene, catalog #RC213845) was transiently expressed in HEK293T cells following standard lipofectamine or Fugene transfection protocol. […] Cells were washed, and binding was detected by incubation with anti-mouse IgG-FITC (Biolegend, catalog #406001) for 20 minutes at 4° C. Cell binding was analyzed by flow cytometry with a CytoFLEX (Beckman Coulter). Binding curves were calculated as a percentage of cells positive for bound antibody.
# Isoform 2 of hu-CD96 (DNA construct: Origene, catalog #RC221005) was expressed on a single-cell-clone-derived CHO stable cell line. Binding of the anti-CD96 antibodies to the CHO cells were determined as described above with isoform 1 of hu-CD96.
# [2] = target: T2, hu-CD96 (soluble, isoform 2 …); assay: ELISA, blocks biotin-CD96 binding to coated hu-CD155-mFc
# Procedure: The selected 5 affinity matured Fab variants of mAb1.v7 Fab were assayed for blocking of human CD155 (hu-CD155) receptor by ELISA as follows. Briefly, 96-well MAXISORP® flat bottom plates (Thermofisher, Cat #439454) were coated overnight at 4° C. with 2 µg/mL goat anti-mouse Fc (Thermofisher, Cat #31168) in PBS. After removing the coating solution, unspecific binding was blocked with PBS containing 1% bovine serum albumin (BSA) and incubation at room temperature for one hour. Plates were then washed five times in PBS with 0.05% TWEEN®-20 (wash buffer) and added […] hu-CD155-mFc in PBS for 1 hour in room temperature. During blocking period, 50 µL/well of 4 nM biotinylated hu-CD96 or 40 nM biotinylated cy-CD96 with serial dilution of the Fab variants 50 µL/well (starting at 2 µM, 1:3 dilution) for two hours at room temperature with PBS containing 0.5% BSA and 0.05% Tween 20 (ELISA buffer) in NUNC F plate (Thermofisher, Cat #269620). Then transferred the antigen-antibody mix solution 80 µL/well into hu-CD155-mFc coated wells at room temperature for 15 min. Plates were then washed with wash buffer to which was added 50 µL/well Streptavidin poly-HRP (Thermofisher, Cat #21140) diluted 1:5000 in ELISA buffer at room temperature for one hour with agitation. […] Enzymatic color development was stopped with 50 µL/well of TMB stop solution (VWR, Cat #95059-200). Plates were analyzed with a SpectraMax i3X plate reader (Molecular Devices) at 450 nm. […] The blocking $IC50$ values for the mAbv1.7 and the 5 selected affinity matured Fab variants (mAb1.v7.2, mAb1.v7.9, mAb1.v7.16, mAb1.v7.48, mAb1.v7.70) are summarized in Table 10 (above).
# [3] = target: T1, hu-CD96 isoform 2 on CHO cells; assay: FACS, CD155-Fc-FLAG 10 nM, Ab 0.16 nM
# Procedure: (§1) CHO cells stably expressing isoform 2 of hu-CD96 (Origene, catalog #RC221005) were incubated with anti-CD96 antibodies for 20 minutes at 4° C. The cells were washed, and then incubated with 10 nM human CD155-Fc-FLAG for 30 minutes at 4° C. Cells were washed, and then human CD155-Fc-FLAG binding was detected by incubation with anti-FLAG-APC (Columbia Biosciences, catalog #D3-1718-1MG) for 20 minutes at 4° C. Cell binding was analyzed by flow cytometry with a CytoFLEX (Beckman Coulter). CD155 binding is represented as median fluorescence intensity (MedFI).
# (§2) As shown in Table 20 (below), the anti-CD96 antibodies, mAb1.v7.NGS8, mAb1.v7.NGS9, mAb1.v7.NGS10, mAb1.v7.NGS11, and h10G1 inhibited soluble hu-CD155 binding to CD96-expressing CHO cells dose-dependently and potently. The antibody NK92.39 (Fuchs et al., 2004; Biolegend catalog #338405) inhibited receptor binding similarly.
# [4] = target: T1, hu-CD96 isoform 2 on CHO cells; assay: FACS, CD155-Fc-FLAG 10 nM, Ab 0.0064 nM
# Procedure: as §1, §2
# [5] = target: T1, hu-CD96 isoform 2 on CHO cells; assay: FACS, CD155-Fc-FLAG 10 nM, Ab 0.8 nM
# Procedure: as §1, §2
Binder,% positive [1],IC50 [2],further results
"10G1 (clone 10G1.3G8), purified hybridoma antibody (antibody, V domains shown, murine hybridoma IgG) VH: QIQLVQSGPELKKPGETVKISCKASGYPFTTYGMSWVKQAPGKGLKWMGWINTDSGVPTYADDFKGRFAFSLETSANTAYLQINSLKNEDAATYFCARNIYYGWGNFDYWGQGTILTVSS VL: DILMTQSPTTLSVTPGETVSLSCRASQDIYRNLHWYQQKSQGTPRLLIKHASDSISGIPSRFTGSGSGTDFTLSINSVKPEDEGIYYCLQGYSMPYTFGGGTKLEIK",0.4%,–,–
"mAb1.v7 Fab (Fab, V domains shown) VH: EVQLVQSGAEVKKPGASVKVSCKASGFTFTNNWMHWVRQAPGQGLEWIGMIHPNSGITNINEKFKNRVTMTTDTSTSTAYMELRSLRSEDTAVYYCRSDGTYEGYFDYWGQGTLVTVSS VL: DIQLTQSPSSLSASVGDRVTITCKASQNVGTAIVWYQQKPGKAPKVLIYSASTRYTGVPSRFSGSGSGTDFTLTISSLQPEDFATYYCQQYSSSPLTFGQGTKVEIK",–,–,apparent IC50 (pooled screen) [2]: 0.74 nM
"mAb1.v7.2 Fab (Fab, V domains shown, also called M34R/P52aF/T97V) VH: EVQLVQSGAEVKKPGASVKVSCKASGFTFTNNWRHWVRQAPGQGLEWIGMIHFNSGITNINEKFKNRVTMTTDTSTSTAYMELRSLRSEDTAVYYCRSDGVYEGYFDYWGQGTLVTVSS VL: DIQLTQSPSSLSASVGDRVTITCKASQNVGTAIVWYQQKPGKAPKVLIYSASTRYTGVPSRFSGSGSGTDFTLTISSLQPEDFATYYCQQYSSSPLTFGQGTKVEIK",–,0.7 nM,–
"mAb1.v7.9 Fab (Fab, V domains shown, also called M34R/P52aM/T97V) VH: EVQLVQSGAEVKKPGASVKVSCKASGFTFTNNWRHWVRQAPGQGLEWIGMIHMNSGITNINEKFKNRVTMTTDTSTSTAYMELRSLRSEDTAVYYCRSDGVYEGYFDYWGQGTLVTVSS VL: DIQLTQSPSSLSASVGDRVTITCKASQNVGTAIVWYQQKPGKAPKVLIYSASTRYTGVPSRFSGSGSGTDFTLTISSLQPEDFATYYCQQYSSSPLTFGQGTKVEIK",–,0.42 nM,–
"mAb1.v7.16 Fab (Fab, V domains shown, also called M34R/T97V) VH: EVQLVQSGAEVKKPGASVKVSCKASGFTFTNNWRHWVRQAPGQGLEWIGMIHPNSGITNINEKFKNRVTMTTDTSTSTAYMELRSLRSEDTAVYYCRSDGVYEGYFDYWGQGTLVTVSS VL: DIQLTQSPSSLSASVGDRVTITCKASQNVGTAIVWYQQKPGKAPKVLIYSASTRYTGVPSRFSGSGSGTDFTLTISSLQPEDFATYYCQQYSSSPLTFGQGTKVEIK",–,0.8 nM,–
"mAb1.v7.48 Fab (Fab, V domains shown, also called N32R/P52aH/T97V) VH: EVQLVQSGAEVKKPGASVKVSCKASGFTFTNRWMHWVRQAPGQGLEWIGMIHHNSGITNINEKFKNRVTMTTDTSTSTAYMELRSLRSEDTAVYYCRSDGVYEGYFDYWGQGTLVTVSS VL: DIQLTQSPSSLSASVGDRVTITCKASQNVGTAIVWYQQKPGKAPKVLIYSASTRYTGVPSRFSGSGSGTDFTLTISSLQPEDFATYYCQQYSSSPLTFGQGTKVEIK",–,0.42 nM,–
"mAb1.v7.70 Fab (Fab, V domains shown, also called N32R/P52aA/T97V) VH: EVQLVQSGAEVKKPGASVKVSCKASGFTFTNRWMHWVRQAPGQGLEWIGMIHANSGITNINEKFKNRVTMTTDTSTSTAYMELRSLRSEDTAVYYCRSDGVYEGYFDYWGQGTLVTVSS VL: DIQLTQSPSSLSASVGDRVTITCKASQNVGTAIVWYQQKPGKAPKVLIYSASTRYTGVPSRFSGSGSGTDFTLTISSLQPEDFATYYCQQYSSSPLTFGQGTKVEIK",–,0.8 nM,–
"9H4, purified hybridoma antibody (antibody, V domains shown, murine hybridoma IgG) VH: EVQLLETGGGLVKSGGSLKLSCAASGFTFSDYYMYWVRQTPEKRLEWVAAISDDGTYTYYPDSVKGRFTISRDNANNYLYLQMSSLKSEDTAIYYCAKAGSYDYFDVWGAGTTVTVSS VL: DIVLTQSPASLAVSLGQRAIISCKASQSVTFADTGLMHWYQQKPGQQPKLLIYRASNLEVGVPTRFSGSGSGTDFTLNIHPVEEEDVATYYCQQSREYPWTFGGGTKLEIK",0.3%,–,–
"7E5, purified hybridoma antibody (antibody, V domains shown, murine hybridoma IgG) VH: QVQLKESGPGLVAPSQSLSIICTVSGFSLTNYGIHWIRQPPGKGLEWLGIIWAGGSTNYNSALMSRLTISKDNSKSQVFLKMNSLQTNDTAIYYCARVSMMGFAYWGQGTLVTVSA VL: QAVVTQESALTTSPGETVTLTCRSSTGAVTTSNYANWVQEKPDHLFTGLIGGTNNRAPGVPARFSGSLIGDKAALTITGAQTEDEAIYFCSLWYGSHWVFGGGTKLTVL",3.6%,–,–
"mAb1.v7 IgG (humanized 12F8) (antibody, V domains shown, human IgG1 N297G) VH: EVQLVQSGAEVKKPGASVKVSCKASGFTFTNNWMHWVRQAPGQGLEWIGMIHPNSGITNINEKFKNRVTMTTDTSTSTAYMELRSLRSEDTAVYYCRSDGTYEGYFDYWGQGTLVTVSS VL: DIQLTQSPSSLSASVGDRVTITCKASQNVGTAIVWYQQKPGKAPKVLIYSASTRYTGVPSRFSGSGSGTDFTLTISSLQPEDFATYYCQQYSSSPLTFGQGTKVEIKG",0.4%,–,–
"mAb1.v7.NGS9 IgG (antibody, V domains shown, human IgG1 N297G) VH: EVQLVQSGAEVKKPGASVKVSCKASGFTFTNNFMHWVRQAPGQGLEWIGMIHANSGITNINEKFKNRVTMTTDTSTSTAYMELRSLRSEDTAVYYCRSDGVYEGYFDYWGQGTLVTVSS VL: DIQLTQSPSSLSASVGDRVTITCKASQNVGTAIVWYQQKPGKAPKVLIYSASTRYTGVPSRFSGSGSGTDFTLTISSLQPEDFATYYCQQYSSSPLTFGQGTKVEIKG",–,–,CD155-Fc binding (MedFI) [3]: 54600 MedFI; CD155-Fc binding (MedFI) [4]: 56600 MedFI; CD155-Fc binding (MedFI) [5]: 32200 MedFI
